Assay results taken from US20150056222A1 (Regeneron, published 2015).

Columns and labels:
IL-6R = target: T1, IL-6R (human, UniProt P08887 20-468); assay: FACS on KG-1 cells (endogenous IL-6R), PE anti-human secondary, MFI above isotype control
T1 construct: whole, on cells
T1 sequence (looked up): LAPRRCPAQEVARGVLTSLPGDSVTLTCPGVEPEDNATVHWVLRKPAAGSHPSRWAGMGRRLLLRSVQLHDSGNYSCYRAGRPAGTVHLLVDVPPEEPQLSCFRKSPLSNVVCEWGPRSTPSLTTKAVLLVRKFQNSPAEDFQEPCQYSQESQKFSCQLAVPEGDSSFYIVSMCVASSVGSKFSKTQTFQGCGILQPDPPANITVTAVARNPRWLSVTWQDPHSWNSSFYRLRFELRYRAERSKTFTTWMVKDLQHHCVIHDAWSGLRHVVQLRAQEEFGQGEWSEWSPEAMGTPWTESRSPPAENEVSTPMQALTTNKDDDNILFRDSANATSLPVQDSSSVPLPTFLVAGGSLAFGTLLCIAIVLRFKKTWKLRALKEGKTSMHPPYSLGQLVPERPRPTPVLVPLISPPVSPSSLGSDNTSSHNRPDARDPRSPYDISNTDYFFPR

[1] = target: T2, human prolactin receptor (PRLR), cell surface-expressed (human, UniProt P16471 25-622); assay: cell-based or functional assay
T2 sequence: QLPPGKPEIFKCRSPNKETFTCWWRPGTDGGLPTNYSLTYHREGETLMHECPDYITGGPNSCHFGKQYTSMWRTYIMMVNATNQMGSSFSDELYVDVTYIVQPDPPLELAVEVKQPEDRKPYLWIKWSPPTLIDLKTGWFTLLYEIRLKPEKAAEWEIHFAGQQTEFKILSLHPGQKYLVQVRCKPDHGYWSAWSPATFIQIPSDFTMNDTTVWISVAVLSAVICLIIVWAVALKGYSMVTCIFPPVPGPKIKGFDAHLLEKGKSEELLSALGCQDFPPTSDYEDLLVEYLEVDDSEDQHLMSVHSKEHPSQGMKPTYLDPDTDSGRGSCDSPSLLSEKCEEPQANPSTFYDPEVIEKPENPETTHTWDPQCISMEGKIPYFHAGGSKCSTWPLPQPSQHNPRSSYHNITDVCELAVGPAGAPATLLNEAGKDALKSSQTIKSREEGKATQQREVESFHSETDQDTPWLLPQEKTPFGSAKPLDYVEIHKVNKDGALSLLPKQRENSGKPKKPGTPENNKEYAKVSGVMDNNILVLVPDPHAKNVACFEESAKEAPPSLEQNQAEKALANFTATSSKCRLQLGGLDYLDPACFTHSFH

[2] = target: T2, human prolactin receptor (PRLR), cell …; assay: cell-based or functional assay; remark: listed apart in the source
[3] = target: T2, human prolactin receptor (PRLR), cell …; assay: cell-based or functional assay; remark: listed apart in the source
[4] = target: T2, human prolactin receptor (PRLR), cell …; assay: cell-based or functional assay; remark: listed apart in the source

B1: VV6A9-5 (antibody, V domains shown)
VH: EVQLVESGGGLVQPGRSLRLSCAASGFTFDDYALHWVRQAPGKGLEWVSGVSWNGGRIGYADSVKGRFTISRDNAKNSLFLQMNSLRVEDTALYYCAKGRDAFDIWGQGTLVTVSS
VL: DIQMTQSPSSVSASVGDRVTITCRASQGISSWLAWYQQKPGKAPKLLIYAASSLQSGVPSRFSGSGSGTDFTLTISSLQPEDFATYYCQHAYSFPYTFGQGTKLEIK
- MFI fold over background (IL-6R): 7 fold over background

B2: H1H6953N-SMCC-DM1 (antibody, human IgG1, V domains shown)
VH: EVQLLESGGGLVQPGGTLRLSCAASGFTFSAYAMSWVRQAPGKGLEWVSSINVRAGDTYYADSVKGRFTISRDNSKNTLFLLMNSLRAEDTAAYYCAKARYSSNWGFDFWGQGTLVTVSS
VL: DIVMTQSPDSLTVSLGARTTINCQSSQTILHSSNNHNYLAWYQQKPGLPPKLLIYWSSTRESGVPDRFSGSGSGTDFTLTISSLQAEDVAIYYCQQYSNTPYTFGQGTKLEIN
modifications: DM1 conjugated through an SMCC linker; attachment residues not stated
- IC50, cell viability, MCF7 cells [1]: 82000 pM
- IC50, cell viability, T47D cells [1]: 1300 pM
- IC50, cell viability, T47D/ErbB2 cells [1]: 2400 pM
- IC50, cell viability, MCF7/PRLR cells [2]: 330 pM
- IC50, cell viability, MCF/PRLR + ErbB2 cells [2]: 330 pM
- IC50, cell viability, NCI-N87/PRLR cells [2]: 2900 pM
- IC50, cell viability, PC3/PRLR cells [3]: 680 pM
- IC50, cell viability, 293/PRLR cells [4]: 430 pM
